Experimental data: US20180273642A1 (EMERGENT PRODUCT DEVELOPMENT SEATTLE, published 2018)

T1: CD19 on cells (UniProt P15391 20-556, limits assumed)
T1 construct: whole, on cells
T1 sequence (looked up): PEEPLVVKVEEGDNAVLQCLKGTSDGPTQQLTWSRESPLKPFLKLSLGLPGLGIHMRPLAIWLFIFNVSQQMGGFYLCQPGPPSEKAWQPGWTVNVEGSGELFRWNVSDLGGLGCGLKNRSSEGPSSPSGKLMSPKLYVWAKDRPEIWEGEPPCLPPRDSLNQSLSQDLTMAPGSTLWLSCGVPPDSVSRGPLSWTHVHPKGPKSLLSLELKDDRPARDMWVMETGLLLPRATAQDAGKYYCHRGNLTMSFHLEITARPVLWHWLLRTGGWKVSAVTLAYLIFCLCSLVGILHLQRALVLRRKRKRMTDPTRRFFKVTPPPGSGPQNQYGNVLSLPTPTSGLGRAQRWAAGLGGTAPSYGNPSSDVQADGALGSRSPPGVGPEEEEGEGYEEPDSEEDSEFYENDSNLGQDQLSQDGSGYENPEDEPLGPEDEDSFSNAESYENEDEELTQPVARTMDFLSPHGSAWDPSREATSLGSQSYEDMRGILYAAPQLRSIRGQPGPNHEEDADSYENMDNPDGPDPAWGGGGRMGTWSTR

T2: CD20 on cells (UniProt P11836 1-297, limits assumed)
T2 construct: whole, on cells
T2 sequence (looked up): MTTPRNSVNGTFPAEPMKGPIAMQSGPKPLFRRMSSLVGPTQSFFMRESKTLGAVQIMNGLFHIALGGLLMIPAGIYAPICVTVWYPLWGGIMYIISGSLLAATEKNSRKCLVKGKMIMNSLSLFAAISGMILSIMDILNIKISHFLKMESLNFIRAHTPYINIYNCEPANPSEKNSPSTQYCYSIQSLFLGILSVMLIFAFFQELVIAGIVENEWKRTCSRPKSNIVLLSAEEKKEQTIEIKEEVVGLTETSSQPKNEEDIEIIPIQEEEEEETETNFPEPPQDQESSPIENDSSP


What was measured:
CD28 on CD4+ T cells = target: T3, CD28 on CD4+ T cells (human, UniProt P10747 19-220); experiment: binding to CD4+ T cells (FIG. 3; method not described)
T3 construct: whole, on cells

CD19 on cells = target: T1, CD19 on cells; experiment: flow cytometry on Rec1 (CD19+, CD20+) cells, 100 nM to 0.1 nM, goat anti-human IgG-FITC
Description: (§1) T-cells were isolated from donor PBMCs using a Pan T-cell Isolation Kit II from Miltenyi Biotec (Bergisch Gladbach, Germany). Non T-cells were separated from PBMCs by being indirectly magnetically labeled with biotin-conjugated monoclonal antibodies and anti-biotin magnetic microbeads. These cells were then depleted by retaining them in a column surrounded by a magnetic field. The T-cells were not retained in the column and were collected in the flow through.
(§2) The cells were washed three times and then incubated with goat anti-human IgG-FITC (1:200 dilution) for another 30 minutes at 4° C. The cells were then washed again three times, fixed in 1% paraformaldehyde and read on a FACS-Calibur instrument.

CD20 on cells = target: T2, CD20 on cells; experiment: as above
Description: as §1, §2

Binder | binding result (CD28 on CD4+ T cells) | also measured
monovalent anti-CD28 polypeptide heterodimer X0124 (Fc fusion, One 2E12 (anti-CD28) scFv only; also called X0112 + X0113) chain 1: QVQLKESGPGSVAPSQSLSITCTVSGFSLTGYGVNWVRQPPGKGLEWLGMIWGDGSTDYNSALKSRLSITKDNSKSQVFLKMNSLQTDDTARYYCARDGYSNFHYYVMDYWGQGTSVTVSSGGGGSGGGGSGGGGSGGGGSDIVLTQSPASLAVSLGQRATISCRASESVEYYVTSLMQWYQQKPGQPPKLLISAASNVESGVPARFSGSGSGTDFSLNIHPVEEDDIAMYFCQQSRKVPWTFGGGTKLEIKSSSASTKGPSVFPLAPSSKSTSGGTAALGCLVKDYFPEPVTVSWNSGALTSGVHTFPAVLQSSGLYSLSSVVTVPSSSLGTQTYICNVNHKPSNTKVDKKVRTEPKSSDKTHTCPPCPSGAPELLGGPSVFLFPPKPKDTLMISRTPEVTCVVVDVSHEDPEVKFNWYVDGVEVHNAKTKPREEQYNSTYRVVSVLTVLHQDWLNGKEYKCKVSNKALPAPIEKTISKAKGQPREPQVYTLPPSRDELTKNQVSLTCLVKGFYPSDIAVEWESNGQPENNYKTTPPVLDSDGSFFLYSKLTVDKSRWQQGNVFSCSVMHEALHNHYTQKSLSLSPGK chain 2: TVAAPSVFIFPPSDEQLKSGTASVVCLLNNFYPREAKVQWKVDNALQSGNSQESVTEQDSKDSTYSLSSTLTLSKADYEKHKVYACEVTHQGLSSPVTKSFNRGERTEPKSSDKTHTCPPCPSGAPELLGGPSVFLFPPKPKDTLMISRTPEVTCVVVDVSHEDPEVKFNWYVDGVEVHNAKTKPREEQYNSTYRVVSVLTVLHQDWLNGKEYKCKVSNKALPAPIEKTISKAKGQPREPQVYTLPPSRDELTKNQVSLTCLVKGFYPSDIAVEWESNGQPENNYKTTPPVLDSDGSFFLYSKLTVDKSRWQQGNVFSCSVMHEALHNHYTQKSLSLSPGK | binds | 
bivalent anti-CD28 polypeptide heterodimer X0172 (Fc fusion, also called X0130 + X0168) chain 1: QVQLKESGPGSVAPSQSLSITCTVSGFSLTGYGVNWVRQPPGKGLEWLGMIWGDGSTDYNSALKSRLSITKDNSKSQVFLKMNSLQTDDTARYYCARDGYSNFHYYVMDYWGQGTSVTVSSGGGGSGGGGSGGGGSGGGGSDIVLTQSPASLAVSLGQRATISCRASESVEYYVTSLMQWYQQKPGQPPKLLISAASNVESGVPARFSGSGSGTDFSLNIHPVEEDDIAMYFCQQSRKVPWTFGGGTKLEIKSSSASTKGPSVFPLAPSSKSTSGGTAALGCLVKDYFPEPVTVSWNSGALTSGVHTFPAVLQSSGLYSLSSVVTVPSSSLGTQTYICNVNHKPSNTKVDKKVRTEPKSSDKTHTCPPCPSGAPELLGGPSVFLFPPKPKDTLMISRTPEVTCVVVDVSHEDPEVKFNWYVDGVEVHNAKTKPREEQYNSTYRVVSVLTVLHQDWLNGKEYKCKVSNKALPAPIEKTISKAKGQPREPQVYTLPPSRDELTKNQVSLTCLVKGFYPSDIAVEWESNGQPENNYKTTPPVLDSDGSFFLYSKLTVDKSRWQQGNVFSCSVMHEALHNHYTQKSLSLSPGKSRTVAAPSVFIFPPSDEQLKSGTASVVCLLNNFYPREAKVQWKVDNALQSGNSQESVTEQDSKDSTYSLSSTLTLSKADYEKHKVYACEVTHQGLSSPVTKSFNRGE chain 2: TVAAPSVFIFPPSDEQLKSGTASVVCLLNNFYPREAKVQWKVDNALQSGNSQESVTEQDSKDSTYSLSSTLTLSKADYEKHKVYACEVTHQGLSSPVTKSFNRGERTEPKSSDKTHTCPPCPSGAPELLGGPSVFLFPPKPKDTLMISRTPEVTCVVVDVSHEDPEVKFNWYVDGVEVHNAKTKPREEQYNSTYRVVSVLTVLHQDWLNGKEYKCKVSNKALPAPIEKTISKAKGQPREPQVYTLPPSRDELTKNQVSLTCLVKGFYPSDIAVEWESNGQPENNYKTTPPVLDSDGSFFLYSKLTVDKSRWQQGNVFSCSVMHEALHNHYTQKSLSLSPGKSRASTKGPSVFPLAPSSKSTSGGTAALGCLVKDYFPEPVTVSWNSGALTSGVHTFPAVLQSSGLYSLSSVVTVPSSSLGTQTYICNVNHKPSNTKVDKKVNSLFNQEVQIPLTESYSPNSQVQLKESGPGSVAPSQSLSITCTVSGFSLTGYGVNWVRQPPGKGLEWLGMIWGDGSTDYNSALKSRLSITKDNSKSQVFLKMNSLQTDDTARYYCARDGYSNFHYYVMDYWGQGTSVTVSSGGGGSGGGGSGGGGSGGGGSDIVLTQSPASLAVSLGQRATISCRASESVEYYVTSLMQWYQQKPGQPPKLLISAASNVESGVPARFSGSGSGTDFSLNIHPVEEDDIAMYFCQQSRKVPWTFGGGTKLEIK | binds | 
2E12 (anti-CD28) scFv (scFv, also called 2E12 scFv) scFv: QVQLKESGPGSVAPSQSLSITCTVSGFSLTGYGVNWVRQPPGKGLEWLGMIWGDGSTDYNSALKSRLSITKDNSKSQVFLKMNSLQTDDTARYYCARDGYSNFHYYVMDYWGQGTSVTVSSGGGGSGGGGSGGGGSGGGGSDIVLTQSPASLAVSLGQRATISCRASESVEYYVTSLMQWYQQKPGQPPKLLISAASNVESGVPARFSGSGSGTDFSLNIHPVEEDDIAMYFCQQSRKVPWTFGGGTKLEIK | binds | 
bispecific polypeptide heterodimer TSC020 (anti-CD19 and anti-CD3) (bispecific antibody, HD37 (anti-CD19) scFv and G19-4 (anti-CD3) scFv; also called CD19×αCD3; TSC001 + TSC019) chain 1: DIVLTQSPASLAVSLGQRATISCKASQSVDYDGDSYLNWYQQIPGQPPKLLIYDASNLVSGIPPRFSGSGSGTDFTLNIHPVEKVDAATYHCQQSTEDPWTFGGGTKLEIKGGGGSGGGGSGGGGASQVQLQQSGAELVRPGSSVKISCKASGYAFSSYWMNWVKQRPGQGLEWIGQIWPGDGDTNYNGKFKGKATLTADESSSTAYMQLSSLASEDSAVYFCARRETTTVGRYYYAMDYWGQGTSVTVSSSEPKSSDKTHTCPPCPSGAPELLGGPSVFLFPPKPKDTLMISRTPEVTCVVVDVSHEDPEVKFNWYVDGVEVHNAKTKPREEQYNSTYRVVSVLTVLHQDWLNGKEYKCKVSNKALPAPIEKTISKAKGQPREPQVYTLPPSRDELTKNQVSLTCLVKGFYPSDIAVEWESNGQPENNYKTTPPVLDSDGSFFLYSKLTVDKSRWQQGNVFSCSVMHEALHNHYTQKSLSLSPGKSRASTKGPSVFPLAPSSKSTSGGTAALGCLVKDYFPEPVTVSWNSGALTSGVHTFPAVLQSSGLYSLSSVVTVPSSSLGTQTYICNVNHKPSNTKVDKKV chain 2: EVQLQQSGPELVKPGASMKISCKASGYSFTGYIVNWLKQSHGKNLEWIGLINPYKGLTTYNQKFKGKATLTVDKSSSTAYMELLSLTSEDSAVYYCARSGYYGDSDWYFDVWGAGTTVTVSSGGGGSGGGGSGGGGSAQDIQMTQTTSSLSASLGDRVTISCRASQDIRNYLNWYQQKPDGTVKLLIYYTSRLHSGVPSRFSGSGSGTDYSLTIANLQPEDIATYFCQQGNTLPWTFGGGTKLVTKRSSEPKSSDKTHTCPPCPSGAPELLGGPSVFLFPPKPKDTLMISRTPEVTCVVVDVSHEDPEVKFNWYVDGVEVHNAKTKPREEQYNSTYRVVSVLTVLHQDWLNGKEYKCKVSNKALPAPIEKTISKAKGQPREPQVYTLPPSRDELTKNQVSLTCLVKGFYPSDIAVEWESNGQPENNYKTTPPVLDSDGSFFLYSKLTVDKSRWQQGNVFSCSVMHEALHNHYTQKSLSLSPGKSRTVAAPSVFIFPPSDEQLKSGTASVVCLLNYFYPREAKVQWKVDNALQSGNSQESATEQDSKDSTYSLSSELTLSKADYEKHKVYACEVTHQGLSSPVTKSFNRGE |  | binding result (CD19 on cells): binds
bispecific (CD20, CD3) polypeptide heterodimer TSC021 (bispecific antibody, 2H7 (anti-CD20) scFv and G19-4 (anti-CD3) scFv; also called αCD20×αCD3; TSC002 + TSC019) chain 1: QIVLSQSPAILSASPGEKVTMTCRASSSVSYMHWYQQKPGSSPKPWIYAPSNLASGVPARFSGSGSGTSYSLTISRVEAEDAATYYCQQWSFNPPTFGAGTKLELKDGGGSGGGGSGGGGASQAYLQQSGAESVRPGASVKMSCKASGYTFTSYNMHWVKQTPRQGLEWIGAIYPGNGDTSYNQKFKGKATLTVDKSSSTAYMQLSSLTSEDSAVYFCARVVYYSNSYWYFDVWGTGTTVTVSSSEPKSSDKTHTCPPCPSGAPELLGGPSVFLFPPKPKDTLMISRTPEVTCVVVDVSHEDPEVKFNWYVDGVEVHNAKTKPREEQYNSTYRVVSVLTVLHQDWLNGKEYKCKVSNKALPAPIEKTISKAKGQPREPQVYTLPPSRDELTKNQVSLTCLVKGFYPSDIAVEWESNGQPENNYKTTPPVLDSDGSFFLYSKLTVDKSRWQQGNVFSCSVMHEALHNHYTQKSLSLSPGKSRASTKGPSVFPLAPSSKSTSGGTAALGCLVKDYFPEPVTVSWNSGALTSGVHTFPAVLQSSGLYSLSSVVTVPSSSLGTQTYICNVNHKPSNTKVDKKV chain 2: EVQLQQSGPELVKPGASMKISCKASGYSFTGYIVNWLKQSHGKNLEWIGLINPYKGLTTYNQKFKGKATLTVDKSSSTAYMELLSLTSEDSAVYYCARSGYYGDSDWYFDVWGAGTTVTVSSGGGGSGGGGSGGGGSAQDIQMTQTTSSLSASLGDRVTISCRASQDIRNYLNWYQQKPDGTVKLLIYYTSRLHSGVPSRFSGSGSGTDYSLTIANLQPEDIATYFCQQGNTLPWTFGGGTKLVTKRSSEPKSSDKTHTCPPCPSGAPELLGGPSVFLFPPKPKDTLMISRTPEVTCVVVDVSHEDPEVKFNWYVDGVEVHNAKTKPREEQYNSTYRVVSVLTVLHQDWLNGKEYKCKVSNKALPAPIEKTISKAKGQPREPQVYTLPPSRDELTKNQVSLTCLVKGFYPSDIAVEWESNGQPENNYKTTPPVLDSDGSFFLYSKLTVDKSRWQQGNVFSCSVMHEALHNHYTQKSLSLSPGKSRTVAAPSVFIFPPSDEQLKSGTASVVCLLNYFYPREAKVQWKVDNALQSGNSQESATEQDSKDSTYSLSSELTLSKADYEKHKVYACEVTHQGLSSPVTKSFNRGE |  | binding result (CD20 on cells): binds
